Our source for the binding affinity and signal over background values is article PMC8539749 (Viruses, 2021).

Where “and” joins values, the source holds several entries; their conditions need not be identical. Equal values may be shown once. No end group written: not given here.

For this assay, the target named is Recombinant Gn (residues 21–452) of the SFTSV membrane glycoprotein polyprotein (severe fever with thrombocytopenia syndrome virus). Briefly: ELISA. For orientation: In an ELISA, binding on a coated surface is turned into a signal by an enzyme label.

As to KKRGFGS (not fully specified) [Biotinylated HKU-P1], the binding affinity is 700 µg/mL; the signal over background at 250 µg/mL (fold) is 2 fold and 3 fold.
